Biological target: T1, amyloid beta 42 monomers (UniProt P05067 672-713)
T1 construct: Aβ42, the 42-residue peptide derived from amyloid precursor protein (APP) by proteolysis; HFIP-treated Aβ was considered as Aβm; The peptide fibrillizes during 48 h incubations at 37 °C; also called Aβ42; Aβ; source: bought: Anaspec Inc., purity ≥ 95%; HFIP-treated
Assay: zeta potential + dynamic light scattering + TEM + CD; Aβ (100 µM; for TEM the ThT ratio, 50 µM Aβ to 6.25 µM βCas) with βCas or βCas AuNPs (12.5 µM βCas equivalent), 48 h at 37 °C in deionized water
Conditions: both partners purified

binding result: binds
B1: β casein (natural protein, UniProt P02666 16-224, looked up)
chain: RELEELNVPGEIVESLSSSEESITRINKKIEKFQSEEQQQTEDELQDKIHPFAQTQSLVYPFPGPIPNSLPQNIPPLTQTPVVVPPFLQPEVMGVSKVKEAMAPKHKEMPFPKYPVEPFTESQSLTLTDVENLHLPLPLLQSWMHQPHQPLPPTVMFPPQSVLSLSQSKVLPVPQKAVPYPQRDMPIQAFLLYQEPVLGPVRGPFPIIV
notes: β casein (βCas); Free βCas, which forms micelles in water; Probably the milk protein, which is naturally phosphorylated (surmise); also called βCas micelles

Reference: PMC6706415, “Inhibition of amyloid beta toxicity in zebrafish with a chaperone-gold nanoparticle dual strategy” (Nature Communications, 2019)
